Our source for the Kd values is publication PMC11558822, “Myc 9aaTAD activation domain binds to mediator of transcription with superior high affinity” (Molecular Medicine, 2024).

No end group written: not given here. *: point of attachment. Biotin = O=C1N[C@H]2[C@H](CS[C@H]2CCCCC(=O)*)N1

The target of experiment [1] is T1, KIX domain of CBP coactivator (region 586-672) (UniProt P45481 586-672).
T1 construct: GST-His6x tag removed by TEV protease; also called KIX protein; source: expressed as GST-His6x-TEV-KIX from pGEX-2T, purified (His trap Ni column, TEV cleavage, second His trap, HiLoad S30); not shown: GST, N-terminal, cleaved; His6, N-terminal, cleaved
Nature of the experiment: BLI; biotinylated peptide immobilised on streptavidin SA biosensors (Octet RED96e); KIX domain in solution at 0.31, 0.63, 1.25, 2.5 and 5.0 uM; 30 C, 1000 rpm; 20 mM sodium phosphate pH 6.0, 50 mM NaCl; blank-subtracted, 1:1 model, steady-state analysis; apparent KD, average of pentaplicate. The conditions noted are these: both partners purified. On the technique in general: In BLI a coated tip is dipped into the sample, and binding shifts an interference pattern.

For experiment [2], the target named is T1, KIX domain of CBP coactivator (region …). Put plainly: BLI; biotinylated Sp1 or Sp1-Ac peptide immobilised, KIX in solution in the 3-16 uM range; steady-state analysis, 1:1 model; apparent KD. The conditions noted are these: both partners purified.

T1 sequence (P45481 other isoform, or with tags, fused parts or gaps): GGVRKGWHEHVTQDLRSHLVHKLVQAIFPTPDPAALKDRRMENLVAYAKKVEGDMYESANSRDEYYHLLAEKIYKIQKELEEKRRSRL

B1: MLL 9aaTAD peptide (Biotin-GS-NILPSDIMDFVLKNT) (peptide)
peptide: Biotin-GSNILPSDIMDFVLKNT
notes: linker between biotin and the MLL stretch; MLL stretch with its 9aaTAD; Positive control of the BLI assay; also called MLL peptide; source: synthetic peptide (Apeptide Shanghai Chutide Biotechnology), 95% purity
For B1, the Kd in experiment [1] is 1170 ± 210 nM.

B2: c-Myc 9aaTAD peptide (Biotin-GSSS-TQLEMVTELLG) (peptide)
peptide: Biotin-GSSSTQLEMVTELLG
notes: linker between biotin and the c-Myc stretch; it may belong to the linker; also called c-Myc peptide; MYC peptide; source: synthetic peptide (Apeptide Shanghai Chutide Biotechnology), 95% purity
Turning to B2, the Kd in experiment [1] came out at 2160 ± 1170 nM.

B3: Sp1-Ac peptide, acidic form of Sp1 9aaTAD (Biotin-GSS-GDVSWDTLDLDDLD) (peptide)
peptide: Biotin-GSSGDVSWDTLDLDDLD
notes: linker between biotin and the Sp1 stretch; also called #SpD; acidic modification; source: synthetic peptide (Apeptide Shanghai Chutide Biotechnology), 95% purity
On to B3, for which the Kd in experiment [2] worked out at 9770 ± 1570 nM.

B4: N-Myc 9aaTAD peptide (Biotin-GSSS-EPPSWVTEMLLEN) (peptide)
peptide: Biotin-GSSSEPPSWVTEMLLEN
notes: linker between biotin and the N-Myc stretch; human N-Myc stretch with its 9aaTAD; also called N-Myc peptide; NMY peptide; source: synthetic peptide (Apeptide Shanghai Chutide Biotechnology), 95% purity
With B4, the Kd in experiment [1] is 880 ± 110 nM.
